Assay results published in paper PMC4820748, “Structural basis for the membrane association of ankyrinG via palmitoylation” (Scientific Reports, 2016).

Biological target: the molecule itself
Assay: crystal structure; oxidized form, C121 crystal; sitting-drop vapor diffusion at 20 °C; reservoir 10 mM MgCl2-hexahydrate, 50 mM Tris-HCl (pH 7.5), 1.6 M (NH4)2SO4; asymmetric unit holds one dimeric molecule

B1: AnkG (R1-R5), head-section of the membrane-binding domain of rat ankyrin-G (domain or fragment)
chain: GTKSDANASYLRAARAGHLEKALDYIKNGVDVNICNQNGLNALHLASKEGHVEVVSELLQREANVDAATKKGNTALHIASLAGQAEVVKVLVTNGANVNAQSQNGFTPLYMAAQENHLEVVRFLLDNGASQSLATEDGFTPLAVALQQGHDQVVSLLLENDTKGK
notes: two extra residues, Gly-Thr, left at the N-terminus after the TEV cleavage; In the oxidized form two chains are linked by a disulfide bond between the two Cys70 residues; in the reduced form Cys70 is free; also called ANK3 (R1-R5); AnkG palmitoylation domain; source: E. coli BL21(DE3)pLysS, purified (nickel column, TEV cleavage, superdex200 gel filtration); not shown: His tag, N-terminal, cleaved
stoichiometry N: 2
